Four molecules from US20160355591A1 can be followed below.

Test [1] concerns the target HLA-DR (human leukocyte antigen-DR) on human lymphoma and leukemia cells and human lymphocytes (human). The experiment in a line: indirect flow cytometry, Namalwa cells, FITC-GAM 2nd Ab; none 2.91; control antibody (anti-CEA). For orientation: In flow cytometry, cells or beads pass a laser one at a time.
Test [2] has as its target T1, CD20 on human cells (human) (UniProt P11836).
T1 sequence (looked up): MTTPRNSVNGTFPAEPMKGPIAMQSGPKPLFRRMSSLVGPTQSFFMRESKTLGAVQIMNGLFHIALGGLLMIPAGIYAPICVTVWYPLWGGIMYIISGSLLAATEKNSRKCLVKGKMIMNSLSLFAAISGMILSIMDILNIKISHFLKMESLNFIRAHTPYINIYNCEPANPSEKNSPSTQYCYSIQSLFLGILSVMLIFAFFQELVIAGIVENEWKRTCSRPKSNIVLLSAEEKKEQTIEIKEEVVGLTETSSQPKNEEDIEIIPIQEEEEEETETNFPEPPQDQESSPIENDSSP
The experiment in a line: indirect flow cytometry, Ramos cells, FITC-GAH Fc 2nd Ab; none 3.1.

Test [3] addresses T1, CD20 on human cells (human). Kind of test: indirect FACS, SU-DHL-6 cells, FITC-GAH Fc 2nd Ab; none 4.6.
Test [4] shares this target. The experiment in a line: indirect FACS, Ramos cells, FITC-GAH Fc 2nd Ab; none 3.1.
Test [5] shares this target. Kind of test: indirect flow cytometry, RL cells, FITC-GAH Fc 2nd Ab; none 2.4.
Test [6] deals with T2, CD20 on dog lymphocytes and dog lymphoma cells (dog) (UniProt Q3C2E2).
T2 sequence (looked up): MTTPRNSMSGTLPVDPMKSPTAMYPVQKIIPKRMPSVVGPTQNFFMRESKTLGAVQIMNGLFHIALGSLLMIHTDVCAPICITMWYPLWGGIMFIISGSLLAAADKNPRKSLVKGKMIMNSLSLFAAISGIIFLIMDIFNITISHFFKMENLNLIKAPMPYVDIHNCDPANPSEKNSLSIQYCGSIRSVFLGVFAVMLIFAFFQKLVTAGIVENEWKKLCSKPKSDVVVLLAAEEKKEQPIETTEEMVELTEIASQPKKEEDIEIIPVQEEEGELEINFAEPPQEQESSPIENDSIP
Kind of test: flow cytometry, dog lymphoma aspirate; none 3.24.

In test [7] the target is T1, CD20 on human cells (human). The experiment in a line: indirect flow cytometry, Namalwa cells, FITC-GAH 2nd Ab; none 2.52.
Test [8] has the same target. The experiment in a line: indirect FACS, Daudi cells, FITC-GAH Fc 2nd Ab; none 3.1.
Test [9] has the same target. Kind of test: indirect FACS, Namalwa cells, FITC-GAH Fc 2nd Ab; none 2.5.
Test [10] shares this target. Kind of test: indirect FACS, Raji cells, FITC-GAH Fc 2nd Ab; none 6.8.
Test [11] shares this target. Kind of test: indirect flow cytometry, Namalwa cells, FITC-GAH Fc 2nd Ab; none 2.6.
For test [12], the target named is T2, CD20 on dog lymphocytes and dog lymphoma cells (dog). Kind of test: flow cytometry, canine lymphoma aspirate 150836; none 4.5.
For test [13], the target named is T1, CD20 on human cells (human). The experiment in a line: indirect flow cytometry, SU-DHL-6 cells, FITC-GAH Fc 2nd Ab; none 4.6.
Test [14] has the same target. The experiment in a line: indirect FACS, WSU-FSCCL cells, FITC-GAH Fc 2nd Ab; none 2.6.
The target in test [15] is T2, CD20 on dog lymphocytes and dog lymphoma cells (dog). Kind of test: flow cytometry, canine lymphoma aspirate 150836; none 3.2.
Test [16] shares this target. Kind of test: flow cytometry, dog lymphoma aspirate; none 4.48.
The target of test [17] is T1, CD20 on human cells (human). The experiment in a line: indirect flow cytometry, WSU-FSCCL cells, FITC-GAH Fc 2nd Ab; none 2.7.
For test [18] the target is unchanged. Kind of test: indirect flow cytometry, Daudi cells, FITC-GAH Fc 2nd Ab; none 3.2.
Test [19] has as its target human serum complement. Kind of test: cell-based or functional assay.
The target of test [20] is T1, CD20 on human cells (human). The experiment in a line: indirect flow cytometry, Raji cells, FITC-GAH Fc 2nd Ab; none 6.9.
For test [21], the target named is CD74 on dog lymphocytes and dog lymphoma cells (dog). Kind of test: flow cytometry, dog lymphoma aspirate; none 3.37.
In test [22] the target is CD74 on human cells (human) (UniProt P04233). Kind of test: Jeko-1 (MCL) cells; no mAb 14.3.
Test [23] has the same target. The experiment in a line: REH (ALL) cells; no mAb 3.9.
The target is the same in test [24]. The experiment in a line: MEC-1 (CLL) cells; no mAb 4.7.
For test [25], the target named is CD74 on dog lymphocytes and dog lymphoma cells (dog). The experiment in a line: flow cytometry, dog lymphoma aspirate; none 3.85.
For test [26] the target is unchanged. The experiment in a line: flow cytometry, canine lymphoma aspirate 150836; none 3.9.
In test [27] the target is CD74 on human cells (human) (UniProt P04233). Kind of test: Granta-519 (MCL) cells; no mAb 15.3.
Test [28] has as its target CD74 on dog lymphocytes and dog lymphoma cells (dog). Kind of test: flow cytometry, canine lymphoma aspirate 150836; none 3.4.
For test [29], the target named is CD74 on human cells (human) (UniProt P04233). Kind of test: RS4;11 (ALL) cells; no mAb 6.4.
Test [30] has the same target. Kind of test: 697 (ALL) cells; no mAb 4.9.
For test [31] the target is unchanged. The experiment in a line: WAC (CLL) cells; no mAb 15.8.
The target is the same in test [32]. Kind of test: K562 (CML) cells; no mAb 3.2.
For test [33] the target is unchanged. The experiment in a line: GDM-1 (AML) cells; no mAb 16.8.
The target is the same in test [34]. The experiment in a line: indirect flow cytometry, Namalwa cells, FITC-GAM 2nd Ab; none 2.91.
Test [35] has the same target. Kind of test: HC-1 (hairy cell leukemia) cells; no mAb 4.8.
For test [36] the target is unchanged. The experiment in a line: MN60 (ALL) cells; no mAb 8.1.
Test [37] has the same target. Kind of test: Kasumi-3 (AML) cells; no mAb 9.6.
Test [38] shares this target. The experiment in a line: Kasumi-1 (AML) cells; no mAb 18.2.
The target in test [39] is human serum complement. The experiment in a line: cell-based or functional assay. The source holds these as a separate data set.

Where two headings read alike, the source gives them in different places.

CD74 on human cells (human), sequence (P04233 whole entry): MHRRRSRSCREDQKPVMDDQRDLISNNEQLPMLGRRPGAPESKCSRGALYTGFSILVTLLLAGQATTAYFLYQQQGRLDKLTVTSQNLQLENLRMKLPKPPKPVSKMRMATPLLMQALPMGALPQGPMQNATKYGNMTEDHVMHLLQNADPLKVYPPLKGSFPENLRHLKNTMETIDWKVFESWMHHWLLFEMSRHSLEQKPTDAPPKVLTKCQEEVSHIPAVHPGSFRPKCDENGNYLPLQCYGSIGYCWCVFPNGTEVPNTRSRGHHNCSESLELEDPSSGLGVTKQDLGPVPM

B1: MN-14 (murine anti-carcinoembryonic antigen mAb) (antibody, from a related filing, V domains shown)
VH: EVKLLESGGGLVQSGGSLKLSCAASGFDFTTYWMSWVRQAPGKGLEWIGEIHPDSSTINYAPSLKDKFIVSRDNAKNTLYLQMSKVRSEDTALYYCASLYFGFPWFAYWGQGTPVTVSA
VL: EIQLTQSHKMMSTSVGDRVSITCKASQDVGTSVAWYQQRPGQSPKLLIYWTSTRHTGVPDRFTGSVSGTDFTLTITNVQSEDLADYFCQQYSLYRSFGGGTKLEIK
In turn, B1 returned a geometric mean fluorescence in test [1] of 3.32.

B2: hA20 (veltuzumab, humanized anti-CD20 IgG1) (antibody, INN chains, looked up, V domains shown, part only)
VH: QVQLQQSGAEVKKPGSSVKVSCKASGYTFTSYNMHWVKQAPGQGLEWIGAIYPGMGDTSYNQKFKGKATLTADESTNTAYMELSSLRSEDTAFYYCARSTYYGGDWYFDVWGQGTTVTVSS
VL: DIQLTQSPSSLSASVGDRVTMTCRASSSVSYIHWFQQKPGKAPKPWIYATSNLASGVPVRFSGSGSGTDYTFTISSLQPEDIATYYCQQWTSNPPTFGGGTKLEIKR
Take B2: the geometric mean fluorescence amounted to 204 in test [2]; 1200 in [3]; 204 in [4]; 128 in test [5]; 6.28 in [7]; 241 in test [8]. Also, the geometric mean fluorescence in test [9] came to 10.1; in test [10], 267; in test [11], 10.1; in test [13], 1200; in test [14], 8.91; in test [17], 8.9. For the same molecule, the figures for the geometric mean fluorescence in [18] and in test [20] were 241 and 267, respectively. Also, the mean FL in test [6] is 3.25; in test [15], 3.3. Further, the % Positive stood at 4% in [12] and 3.96% in test [16]. Further, the complement-mediated cytotoxic effect on Daudi cells (CDC, resazurin viability), EC50 with human serum complement [19] is 0.66 nM.

B3: LL1 (murine anti-human CD74 mAb) (antibody, from a related filing, V domains shown)
VH: QIQLVQSGPELKKPGETVKVTCKTSGYTFTNYGVNWIKQTPGEGLQWMGWINPNTGEPTFDDDFKGRFAFSLESSASTAFLQISNLKNEDMGTYFCSRSRGKNEAWFAYWGQGTLVTVSE
VL: DVVMTQTPLSLPVSLGDQASISCRSSQSLVHRNGNTYLHWYLQKPGQSPKLLIYTVSNRFSGVPDRFSGSGSGTDFTLKISRVEAEDLGLYFCSQSSHVPPTFGAGTKLEI
Consider B3, for which the mean FL in test [21] stood at 4.01; in test [22], 32.7; in test [23], 61.1; in test [24], 44.7; in test [27], 50.8; in test [28] it was 4. Moreover, the mean FL stood at 24.3 in test [29]; 20.6 in test [30]; 43.6 in test [31]; 7 in [32]; 69.5 in test [33]; 36.7 in test [35]. For the same molecule, the mean FL in test [36] worked out at 25.9; in test [37], 18.4; in test [38], 23.8. The % Positive worked out at 6.69% in test [25] and 6.7% in [26]. This molecule also had a geometric mean fluorescence in test [34] of 17.3.

B4: hL243 (humanized L243 anti-HLA-DR antibody, IgG1/K isotype) (antibody, V domains shown)
VH: QVQLQQSGSELKKPGASVKVSCKASGFTFTNYGMNWVKQAPGQGLKWMGWINTYTREPTYADDFKGRFAFSLDTSVSTAYLQISSLKADDTAVYFCARDITAVVPTGFDYWGQGSLVTVSS
VL: DIQLTQSPSSLSASVGDRVTITCRASENIYSNLAWYRQKPGKAPKLLVFAASNLADGVPSRFSGSGSGTDYTFTISSLQPEDIATYYCQHFWTTPWAFGGGTKLQIKR
In the test with human serum complement [39], B4 had a complement-mediated cytotoxic effect on Daudi cells (CDC, resazurin viability), EC50 of 2.6 nM.
